The values that follow come from the supplement of paper PMC12042874.

± gives the uncertainty stated by the source.

A short description of the series: amyloid nucleation score (Sup35N fusion, yeast selection) (log enrichment); library NNK2; higher = more nucleation; inactive = no reads after selection. In a few lines: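 Growth for 7 days at 30°C on medium lacking adenine and uracil followed a 24-hour induction with 100 μM copper sulfate of psi-negative yeast expressing peptides of 20 random codons fused to Sup35N. Input and output plasmid inserts were sequenced with Illumina, and sequences with under 100 input reads were excluded. Nucleation score is the DiMSum log enrichment of output over input reads, centred on the mode score of non-aggregating sequences.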
As to TPVQDNYSYFIFKPIDESIA, the amyloid nucleation score amounted to 2.19 ± 0.12.

In the case of VYRNVLSRMQSLCVF, the amyloid nucleation score entry was “inactive”.

KSGGDDLESSWRCWASMGLM returned an amyloid nucleation score of 0.182 ± 0.31.

CALNFCAEVARFLRMLKSLL had an amyloid nucleation score of -0.042 ± 0.79.

For the substance NKRGQFMNMQLEKSLYFQGL, the amyloid nucleation score is -1.15 ± 0.76.

As to HNVEGRDRVVLMFSIKCCML, the amyloid nucleation score is 5.92 ± 0.061.

In turn, LLPMGYAYISYSLLGNYMSG registered an amyloid nucleation score of -1.37 ± 0.48.

With CLNPFDSYGTSYCKCWWSAT, the amyloid nucleation score was -0.451 ± 0.33.

For PGNNMLFMWYHWGLGCNFLM, the amyloid nucleation score was -0.059 ± 0.79.

LLFTLGNGGFSLRYKK: the amyloid nucleation score is -0.265 ± 0.23.

Substance KSVTDSL displayed an amyloid nucleation score of 0.878 ± 0.44.

Substance SRNISQKLHTYMTYGSKVGY returned an amyloid nucleation score of -0.229 ± 0.32.

For VRGSATEFTILVVVVVLGKR, the amyloid nucleation score was found to be 0.182 ± 0.42.

On to WCHTGKRINFPFICFLWFWC, for which the amyloid nucleation score entry was “inactive”.

Regarding SIGPLLHMCSFVFLEVRIIF, the amyloid nucleation score amounted to 1.83 ± 0.15.

Turning to RFLCFLPNNYLFSAGFSLVL, the amyloid nucleation score result was “inactive”.

Regarding IGVLISVGNLSYSTYSSRFI, the amyloid nucleation score stood at 5.87 ± 0.062.

For SLSTHIFLSSGLSLTFKKRS, the amyloid nucleation score entry is “inactive”.

In turn, ACDSAIIGWNKIT registered an amyloid nucleation score of 0.504 ± 0.54.

Consider CYLMKSFMNLSDRNVFGNVT, for which the amyloid nucleation score was -0.295 ± 0.32.

In turn, KTLTVFAISYC displayed an amyloid nucleation score of 0.482 ± 0.55.

As to YSRVQSRPMCKLRKALHWRV, the amyloid nucleation score amounted to 1.31 ± 0.25.

For the substance AYIARYNPTSLNRVEYPPDD, the amyloid nucleation score was determined as 1.49 ± 0.58.

For the substance VLYPMLNGGFMESLN, the amyloid nucleation score result was “inactive”.

As to PRCLDLLDIFV, the amyloid nucleation score came to 0.072 ± 1.1.

In turn, DDSHLNCDNRIVISMLRNGN showed an amyloid nucleation score of 0.528 ± 0.32.

Take TFCVNFARRVSLRSVLATIG: the amyloid nucleation score came to 0.034 ± 0.43.

With ALTVKSQLCG, the amyloid nucleation score was -1.71 ± 1.1.

Regarding DSKWIM, the amyloid nucleation score is -0.326 ± 0.46.

With NLDVSYYVIYIKPGRYPV, the amyloid nucleation score turned out to be 6.09 ± 0.078.

The substance SLGSSWCNSDLLAL gave an amyloid nucleation score of -0.311 ± 1.1.

Substance IVLEMLKVTRVGPKQIGWPW registered an amyloid nucleation score of 0.696 ± 0.38.

Take LFVCNSMP: the amyloid nucleation score came out at 0.35 ± 0.8.

Substance LAPVYEFEVWIHGIRGRCAW gave an amyloid nucleation score of 4.18 ± 0.065.

As for PSNNIFSLLFLVLKHFIDMR, the amyloid nucleation score entry is “inactive”.

On to DFLSGTMVDETSDKGISLLV, for which the amyloid nucleation score turned out to be 0.605 ± 0.47.

Substance VIKFDQISCNSFPNSLL gave an amyloid nucleation score of -0.479 ± 0.55.

NFYIATIRTAFLSVMAVRN: the amyloid nucleation score came to 3.29 ± 0.089.

Substance SQSHNIYQ registered an amyloid nucleation score of 3.46 ± 0.14.

FEVFLM: the amyloid nucleation score was -0.499 ± 0.41.

The substance LFSSQLTATVRVPMSRNGLW returned an amyloid nucleation score of 7.088 ± 0.031.

Consider AIVGEMMALFYDNLSRGGVH, for which the amyloid nucleation score was -0.505 ± 0.47.

RLSVA yielded an amyloid nucleation score of 1.24 ± 0.26.

In the case of GGYDGVSQMCHFEITWNWMT, the amyloid nucleation score came to 1.37 ± 0.29.

As to VLSPQVKRSHTFLGNDLRTD, the amyloid nucleation score worked out at 4.64 ± 0.072.

SGCCR gave an amyloid nucleation score of -0.925 ± 1.

As for GQVRSFCTGEG, the amyloid nucleation score is -0.677 ± 1.

Substance FSVTMF came in with an amyloid nucleation score of -0.197 ± 0.33.

Consider GLVGEGRACYVKHD, for which the amyloid nucleation score is 0.861 ± 0.57.

For the substance ENERNML, the amyloid nucleation score was -0.11 ± 0.29.

MNWHTSYCLFDVRAKVAGNV: the amyloid nucleation score was -0.393 ± 1.1.

Regarding VSITHQLTYW, the amyloid nucleation score stood at 1.33 ± 0.53.

Consider CKWWGRGEGDIVVLWLSEKL, for which the amyloid nucleation score was determined as 0.942 ± 0.66.

In turn, IIYYWAPLVITMEFQERRVR displayed an amyloid nucleation score of 6.395 ± 0.038.

As to TTSKISSSKSLEARHTSHLP, the amyloid nucleation score came out at 0.985 ± 0.27.

In turn, SEEIGLT displayed an amyloid nucleation score of 0.426 ± 0.26.

For RSLCDL, the amyloid nucleation score is -0.755 ± 0.54.

Take DLHWA: the amyloid nucleation score was 0.595 ± 0.28.
